Here are results for seven molecules from US20170174769A1 (Regeneron, published 2017).

Experiment [1] concerns the target T1, human KLB and human FGFR1c co-expressed on HEK293/hKLB/hFGFR1c/SRE-luc cells (human, UniProt Q86Z14 1-1044; P11362 22-822).
T1 construct: two receptors co-expressed on one cell line; also called KLB/FGFR1c coreceptor; FGF21R
Description: FACS on stable HEK293 cells. The method, then: To determine binding specificity of the monoclonal anti-KLB/FGFR1c antibodies, the antibodies were tested in a fluorescence-activated cell sorting (FACS) binding assay to cell lines expressing human FGFR1c, human KLB, and both human FGFR1c and human KLB. HEK293 cell lines were generated that stably express full-length human FGFR1c (hFGFR1c; SEQ ID NO:433) or full-length human KLB (hKLB; SEQ ID NO:434) or both human FGFR1c and human KLB, along with a luciferase reporter [SRE (serum response element)-luciferase, SA Bioscience, #CLS-010L]. The resulting cell lines, referred to as HEK293/hFGFR1c/SRE-luc, HEK293/hKLB/SRE-luc, and HEK293/hKLB/hFGFR1c/SRE-luc, respectively, were maintained in DMEM supplemented with 10% FBS, NEAA, penicillin/streptomycin, 1 μg/mL puromycin and […] hygromycin B, 1 μg/mL puromycin and 500 μg/mL G418, or all three antibiotics.
For the FACS analysis, HEK293 parental, HEK293/hFGFR1c/SRE-luc, HEK293/hKLB/SRE-luc, and HEK293/hKLB/hFGFR1c/SRE-luc cells were dissociated and plated onto 96-well v-bottom plates at 5 x 10⁵ cells/well in PBS containing 1% FBS. […] Cells were filtered and subsequently analyzed on a Hypercyte Flow Cytometer (Intellicyt Corp.). Unstained and secondary antibody alone controls were also tested for binding to all cell lines. The results were analyzed using FlowJo version 9.52 software and geometric mean (Geom. Mean) of fluorescence for viable cells was determined. Geom. mean of fluorescence for each antibody was then normalized to Geom. mean of unstained cells to obtain relative binding of antibody (binding ratios) per each cell type.

Experiment [2] addresses T2, extracellular domain of human KLB expressed with C-terminal HA and hexahistidine tags (human, UniProt Q86Z14 1-996).
T2 construct: also called hKLB-HA-6His; hKLB-HA-6his
T2 sequence: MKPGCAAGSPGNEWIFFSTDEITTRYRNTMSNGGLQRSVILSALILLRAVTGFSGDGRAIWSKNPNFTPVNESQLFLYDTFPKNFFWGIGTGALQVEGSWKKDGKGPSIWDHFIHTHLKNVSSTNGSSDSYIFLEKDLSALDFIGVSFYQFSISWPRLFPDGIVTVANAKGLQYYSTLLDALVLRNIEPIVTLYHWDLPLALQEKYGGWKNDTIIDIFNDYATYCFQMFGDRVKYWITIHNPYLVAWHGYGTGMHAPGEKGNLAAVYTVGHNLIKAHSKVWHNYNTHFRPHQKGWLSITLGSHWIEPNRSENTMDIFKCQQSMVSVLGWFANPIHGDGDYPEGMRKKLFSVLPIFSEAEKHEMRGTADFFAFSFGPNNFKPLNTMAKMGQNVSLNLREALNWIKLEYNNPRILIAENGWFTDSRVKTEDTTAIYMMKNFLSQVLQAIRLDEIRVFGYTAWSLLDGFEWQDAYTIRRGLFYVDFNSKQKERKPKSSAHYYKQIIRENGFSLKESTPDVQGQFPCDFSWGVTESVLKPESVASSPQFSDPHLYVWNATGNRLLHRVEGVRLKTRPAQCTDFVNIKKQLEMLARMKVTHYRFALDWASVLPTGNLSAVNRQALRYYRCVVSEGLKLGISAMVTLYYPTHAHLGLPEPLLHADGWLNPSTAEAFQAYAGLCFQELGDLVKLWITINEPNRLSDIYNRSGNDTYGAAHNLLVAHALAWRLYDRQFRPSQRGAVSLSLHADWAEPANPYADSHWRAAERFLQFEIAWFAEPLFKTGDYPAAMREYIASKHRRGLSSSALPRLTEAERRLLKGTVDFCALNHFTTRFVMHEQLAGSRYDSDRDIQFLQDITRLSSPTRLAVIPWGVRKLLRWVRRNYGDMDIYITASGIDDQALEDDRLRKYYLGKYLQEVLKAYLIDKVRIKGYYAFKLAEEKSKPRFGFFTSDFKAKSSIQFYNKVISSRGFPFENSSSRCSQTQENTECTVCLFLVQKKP
Nature of the experiment: SPR, mAb captured, 37 C. The method, then:
(§1) Equilibrium dissociation constants (KD values) for human KLB or human FGFR1c binding to purified anti-KLB/FGFR1c monoclonal antibodies were determined using a real-time surface plasmon resonance biosensor using a Biacore T-200 or 4000 instrument. The Biacore sensor surface was derivatized by amine coupling with either a polyclonal rabbit anti-mouse antibody (GE, # BR-1008-38) or with a monoclonal mouse anti-human Fc antibody (GE, # BR-1008-39) to capture anti-KLB/FGFR1c monoclonal antibodies expressed with either a mouse Fc or a human Fc, respectively. All Biacore binding studies were performed in a buffer composed of 0.01M HEPES pH 7.4, 0.15M NaCl, 3mM EDTA, 0.05% v/v Surfactant P20 (HBST running buffer). […] Association of hKLB-HA-6His or hFGFR1c-V5-6His to the captured monoclonal antibody was monitored for 3.5 to 4 minutes and the dissociation of hKLB-HA-6His or hFGFR1c-V5-6His in HBST running buffer was monitored for 8-12 minutes. All the binding kinetics experiments were performed at 25° C. or 37° C. Kinetic association (kₐ) and dissociation (kd) rate constants were determined by fitting the real-time sensorgrams to a 1:1 binding model using Scrubber 2.0c curve fitting software. Binding dissociation equilibrium constants (KD) and dissociative half-lives (t½) were calculated from the kinetic rate constants as: […]

Experiment [3] addresses T3, extracellular domain of human FGFR1c expressed with C-terminal V5 and hexahistidine tags (human, UniProt P11362 22-376).
T3 construct: also called hFGFR1c-V5-6His
T3 sequence: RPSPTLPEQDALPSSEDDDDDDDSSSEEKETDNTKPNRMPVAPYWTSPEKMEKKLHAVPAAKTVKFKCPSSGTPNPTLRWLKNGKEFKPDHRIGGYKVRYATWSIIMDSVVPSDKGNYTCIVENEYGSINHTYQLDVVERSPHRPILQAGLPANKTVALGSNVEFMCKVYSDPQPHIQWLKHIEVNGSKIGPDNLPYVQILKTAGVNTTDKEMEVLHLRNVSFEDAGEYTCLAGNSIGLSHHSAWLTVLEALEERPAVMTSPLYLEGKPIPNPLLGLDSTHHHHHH
Nature of the experiment: SPR, mAb captured, 37 C. The method, then:
as §1

Experiment [4] addresses T1, human KLB and human FGFR1c co-expressed …. Nature of the experiment: cell-based or functional assay.

B1: H2aM8832N (antibody, V domains shown)
VH: QVQLVESGGGVVQPGRSLRLSCAASGFTFSRYGMHWVRQAPGKGLEWVAVIWYDGTNKYYEDSLKGRFTISRDNSKNTLYLQMNSLRAEDSAVYYCARDQGKYIDYWGQGTLVTVSS
VL: AIQMTQSPSSLSASVGDRVTITCRTSQDIRNDLGWYQQKPGKVPNLLIYAASTLQSGVPSRFSGSGSGTDFTLTISSLQPEDFATYYCLQDYNYPFTFGPGTKVDIK
notes: mouse IgG2 Fc (H2aM prefix)
Take B1: the “binding ratio to unstained cells” value in experiment [1] stood at 7 fold. For the same molecule, the “20 nM hKLB-HA-6His Bind (RU)” value in experiment [2] is -0.7 RU. Moreover, the “180 nM hFGFR1c-V5-6His Bind (RU)” value in experiment [3] stood at 2.3 RU.

B2: H4H8859P (antibody, V domains shown)
VH: EVQLVESGGSVVRPGGSLRLSCAASGFTFDVYGMSWVRQAPGKGLEWVSGINWIGGSTGYADSVKGRFTISRDNAKNSLYLQMNSLRAEDTALYYCTREEDYWGQGTLVTVSS
VL: DVVMTQSPLSLAVTLGQPASISCRSSQSLVYSDGNTYLNWFQQRPGQSPRRLFYKVSNRDSGVPDRFSGSGSGTDFTLKISRVEAEDVGIYYCMQGIKWPLTFGGGTKVEIK
notes: human IgG4 Fc (H4H prefix)
Consider B2, for which the “binding ratio to unstained cells” value in experiment [1] is 4 fold. The “20 nM hKLB-HA-6His Bind (RU)” value in experiment [2] amounted to 0.8 RU. Also, in experiment [3], the “180 nM hFGFR1c-V5-6His Bind (RU)” value was found to be 6.8 RU, binding was put at a Kd of 497000 pM, the koff is 0.0382 s⁻¹ and the kon was found to be 76800 M⁻¹ s⁻¹. Moreover, in experiment [3], the t1/2 stood at 0.3 min.

B3: H4H8870P (antibody, V domains shown)
VH: EVQLVESGGGVVRPGGSLRLSCAASGFKFDVYGMSWVRQLPGKGLEWVSGISWTGGSSGYADSVKGRFTISRDNGKKSLYLQMNSLRAEDTALYYCTREEDYWGQGTLVTVSS
VL: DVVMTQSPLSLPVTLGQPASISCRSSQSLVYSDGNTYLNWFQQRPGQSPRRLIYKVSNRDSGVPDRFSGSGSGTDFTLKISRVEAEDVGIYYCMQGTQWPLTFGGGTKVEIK
notes: human IgG4 Fc (H4H prefix)
Turning to B3, in experiment [1], the “binding ratio to unstained cells” value was determined as 4 fold. Moreover, the “20 nM hKLB-HA-6His Bind (RU)” value in experiment [2] is -0.8 RU. Also, in experiment [3], the “180 nM hFGFR1c-V5-6His Bind (RU)” value is 10.6 RU; the affinity, expressed as Kd, was 301000 pM; the dissociation rate constant (koff) worked out at 0.0795 s⁻¹; the association rate constant (kon) came out at 264000 M⁻¹ s⁻¹. For the same molecule, the t1/2 in experiment [3] is 0.1 min.

B4: H2aM8109N (antibody, V domains shown)
VH: QVQVVESGGGVVQPGRSLRLSCAASGFTFSSYGLHWVRQAPGKGLEWVAVIWHDGSHKYYADSVKGRFTISRDNSKNTLYLQMNSLRAEDTAVYYCARDGIPVAEDYYFYGMDVWGQGTTVTVSS
VL: DIQMTQSPSSLSASVGDRVTITCRASQGIRNDLGWYQQKPGKAPKRLIYAASSLQSGVPSRFSGSGSGTEFTLTISSLQPEDFAIYYCLQHNSLTFGGGTKVEIK
notes: mouse IgG2 Fc (H2aM prefix)
B4: in experiment [4], the “IC50, inhibition of 1 nM hFGF21” value turned out to be 33 pM and the “Maximum Inhibition (%) of 1 nM hFGF21” value came out at 23%. The “binding ratio to unstained cells” value in experiment [1] came to 58 fold. For the same molecule, in experiment [2], the “20 nM hKLB-HA-6His Bind (RU)” value turned out to be 36.8 RU, binding was characterised by a dissociation constant (Kd) of 6200 pM, the koff was found to be 0.00131 s⁻¹ and the kon is 211000 M⁻¹ s⁻¹. The molecule further had a t1/2 in experiment [2] of 8.8 min. For the same molecule, the “180 nM hFGFR1c-V5-6His Bind (RU)” value in experiment [3] amounted to 0.7 RU.

B5: H2aM8093N (antibody, V domains shown)
VH: QVQLVQSGAEVKRPGSSVKVSCKASGDTFSTYAISWVRQAPGQGLEWMGGIIPVFGTTNYAQKFQDRVTITTDESTRTAYMELSSLRSEDTAVYYCAGIAGPDYWGQGTLVTVSS
VL: DIQMTQSPSSLSASVGDRVTITCRASQGIRNYLAWFQQKPGKAPKSLIYLATSLQSGVPSKFSGSGSGTDFTLTISSLQPEDFATYYCQQYYSYPWTFGQGTKVEIK
notes: mouse IgG2 Fc (H2aM prefix)
Regarding B5, in experiment [4], the “IC50, inhibition of 1 nM hFGF21” value is 67 pM and the “Maximum Inhibition (%) of 1 nM hFGF21” value was 65%. The “binding ratio to unstained cells” value in experiment [1] turned out to be 41 fold. Moreover, in experiment [2], the “20 nM hKLB-HA-6His Bind (RU)” value stood at 211 RU, binding was put at a Kd of 222 pM, the koff was found to be 0.00018 s⁻¹ and the kon was 812000 M⁻¹ s⁻¹. For the same molecule, the t1/2 in experiment [2] came out at 64.1 min. In experiment [3], the “180 nM hFGFR1c-V5-6His Bind (RU)” value came out at 0.6 RU.

B6: H2aM8091N (antibody, V domains shown)
VH: QVQLVQSGADMKKPGASVKVSCKASGYTFTTYGINWVRQAPGQGLEWMGWISAYSGITNYAQSFQGRVTMTTDTSTSTAYMELRSLRSDDTAVYYCARGGYNWATGDYFDYWGQGTLVTVSS
VL: DIQMTQSPSTLSASIGDRVTITCRASQSISSWLAWYQQKPGKAPKFLIYKASSLASGVPSRFSGSGSGTEFTLTISSLQPDDFATYYCQQYDSYSPYTFGQGTKVEIK
notes: mouse IgG2 Fc (H2aM prefix); also called H2M8091N
As for B6, in experiment [4], the “IC50, inhibition of 1 nM hFGF21” value was found to be 1500 pM and the “Maximum Inhibition (%) of 1 nM hFGF21” value is 106%. The “binding ratio to unstained cells” value in experiment [1] is 37 fold. In experiment [2], the “20 nM hKLB-HA-6His Bind (RU)” value is -2.3 RU. The “180 nM hFGFR1c-V5-6His Bind (RU)” value in experiment [3] is -1.3 RU.

B7: H2aM8092N (antibody, V domains shown)
VH: QVQLQESGPGLVKPSETLSLTCTVSGGSISSYYWSWIRQPPGKGLDWIGHIYYSGTTYYNPSLKSRVSISLDTSKNQFSLKLSSVTAADTAVYYCARHLRGYSSGREFDYWGQGTLVTVSS
VL: DIQMTQSPSSLSASVGGRVSLTCRASQSIFSYLNWYQQKPGKAPKLLIYAASNLQSGVPSRFSGSGSGTDFTLTISSLQPEDFATYSCQQSYNIPYTFGQGTKLEIK
notes: mouse IgG2 Fc (H2aM prefix); also called H2M8092N
In the case of B7, in experiment [4], the “IC50, inhibition of 1 nM hFGF21” value came to 120 pM and the “Maximum Inhibition (%) of 1 nM hFGF21” value stood at 50%. Besides, the “binding ratio to unstained cells” value in experiment [1] came out at 46 fold. Also, in experiment [2], the “20 nM hKLB-HA-6His Bind (RU)” value came to 93.6 RU, binding was characterised by a dissociation constant (Kd) of 412 pM, the koff was 8e-05 s⁻¹ and the kon was determined as 194000 M⁻¹ s⁻¹. The t1/2 in experiment [2] was determined as 144 min. Moreover, in experiment [3], the “180 nM hFGFR1c-V5-6His Bind (RU)” value stood at 0.5 RU.
